Test results reported in the supplement of paper PMC12042874.
± gives the uncertainty stated by the source.

Assay: amyloid nucleation score (Sup35N fusion, yeast selection) (log enrichment); library NNK3; higher = more nucleation; inactive = no reads after selection
Procedure, shortened: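 DiMSum was used to calculate nucleation scores as log enrichment of output over input reads, centred on the mode score of non-aggregating sequences. Sequences with fewer than 100 input reads were not scored. Input and output came from Illumina sequencing of plasmid inserts in psi-negative yeast expressing peptides of 20 random codons fused to Sup35N, induced 24 hours with 100 μM copper sulfate and then grown 7 days at 30°C on medium lacking adenine and uracil.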

Row | Substance | amyloid nucleation score
1 | SNSVHISLYIGSPSFA | 2.56 ± 0.086
2 | VNELSFSTSF | inactive
3 | AYLCGANINL | inactive
4 | SRVYAKGRKNTSQFCSGGYS | inactive
5 | LSLNMVTDGIDDNGGNG | inactive
6 | SRRFYLYYFCWYSVVMFIHG | inactive
7 | IGRTCMCLYSAVVFIRHGTT | inactive
8 | DSKGIFYFFGLVSLY | inactive
9 | IYGTANSKFSCIIYR | 2.09 ± 0.091
10 | DLILWFPL | inactive
11 | GRRYVLEENSVIISWCVIYY | inactive
12 | RSNNGSSERGGDIEDLSPNK | inactive
13 | MFVGP | inactive
14 | MCDKV | inactive
15 | PGSDWDMLIMKGMKKRYLDY | inactive
16 | SFFTGKAKGFYRQALRTYYR | -0.093 ± 0.59
17 | DRLPGANICKRRFDMCERKV | inactive
18 | MRMFCDIYLIVIDTEFMLHF | inactive
19 | FKAVQN | inactive
20 | LSRLGWYRFCTIMGCYFWIL | inactive
21 | FMPMFLRICCTMMLMWLFAC | inactive
22 | MTCWTTYNGTDIEGKGGINN | inactive
23 | YHTYKDSRTGFFMGQHSCMS | inactive
24 | KLFWMIVCGVLNLNSNNYGG | 2.57 ± 0.084

Row | Substance | amyloid nucleation score
25 | TTSVIAGLW | inactive
26 | RRMAETKHGAPMQRVLK | inactive
27 | FNLFRNLIMGNCSALMMDQP | inactive
28 | VQIRAANLTYNRQCQSHLFS | inactive
29 | SVILCFSV | inactive
30 | ARKLFCQTVEENHS | inactive
31 | DLQLRNWCLWVSWWN | inactive
32 | LLAVLALVGLC | inactive
33 | VNLSFNCWFDVVCVSSRF | 1.9 ± 0.07
34 | CRNKFLVKGAFTRGSREN | inactive
35 | LSYLFFKPFWA | 0.357 ± 0.74
36 | IYSRVSRLIH | inactive
37 | SITSFDFLINRVSMPSYNCG | inactive
38 | HRRSMQLWG | inactive
39 | NHYWQ | inactive
40 | TYVIFCYTVSHDDSHRTLYN | 2.19 ± 0.084
41 | RLSGNADYNNWTF | 0.436 ± 0.67
42 | VKGQCHYYLLSQLSGSSPVI | inactive
43 | TLMGLESVSVYFSVGFLSVY | inactive
44 | QILYFVDTEVSYMEASWRDS | inactive
45 | VTMFFLFHMQLYFSSKILGF | inactive
46 | GCRGVTVHSADCCDLSIYLC | 2.31 ± 0.082
47 | QHTAFLRKVSPSLRG | inactive
48 | KATLRCCEPYVNDMVVANLK | inactive

Row | Substance | amyloid nucleation score
49 | PFCVCRLL | inactive
50 | LFFCNCCYGICS | 2.4 ± 0.079
51 | MPIRCSTSLHWTTTMWMTVW | inactive
52 | SRNVLYLVIKIYFEDFNPLS | inactive
53 | GVRHLYVPMFHFVIMGRWHH | inactive
54 | TMLRFIYSYDAFRR | 0.931 ± 0.22
55 | VVMKGTRMVKVKERGSGKDY | inactive
56 | PQRWLSPSYSRIVRM | 1.39 ± 0.14
57 | LKVSAFAYDKFLQRYMTVVT | inactive
58 | INYGTRQCVVQCIIVVCSLG | 2.17 ± 0.068
59 | RNSSYYLMASVDCVRFH | inactive
60 | ASNSIKWFADHFPHSFVN | inactive
61 | LKHVWLSDRALGSSLTCMAG | inactive
62 | VRLCRGS | inactive
63 | SWFGGRDYYKMHIVSG | inactive
64 | QEAGFMYGCYFVILQNHAGF | 1.3 ± 0.092
65 | SDLSCSELEYSHGTNTDWVR | inactive
66 | KFKSRGRSTMLLVFNIVWRV | -0.476 ± 0.42
67 | GIFVGPSVDSLLKLRARSHY | inactive
68 | WRFQQQAFRYNWPWVILLLV | inactive
69 | SKLYYHNQLCFILMHTA | inactive
70 | ACLYY | inactive
71 | SSYLPHHISSQRLSSQEPAD | inactive
72 | FLAFSMEYCYVPHFWKVSLS | 0.311 ± 0.25

Row | Substance | amyloid nucleation score
73 | HLLEVFKDSCRTRGRMLLWG | inactive
74 | SIEMRLCQDWTQLESLT | -0.252 ± 0.66
75 | TGVNFGRLLLISRSVLGVC | inactive
76 | KTKFVTSLNFTVHFKCWNCD | 1.51 ± 0.097
77 | SWFSVLLGLRTSRVIANSTY | inactive
78 | PQLLVSYYL | inactive
79 | YWDCGLCVNEMGRFICCLGG | inactive
80 | PLWAYKYVPGFYRVFKVCLM | inactive
81 | GQEGSRN | 0.186 ± 0.53
82 | SINSLFAESGLMLTFRMSSE | inactive
83 | LLYNTMSLSSSWEY | 0.893 ± 0.17
84 | FIIIVDYSFMPGSRVCMFSW | inactive
85 | MIYAFVGYGVGTSGGVARES | inactive
86 | KLYLLLLYFLDMTVFWFVAV | inactive
87 | MAVLHSLFVKVQLMTSNFS | inactive
88 | ISCYLSDPVYS | -0.493 ± 1
89 | FSSLLTSDWRASCLGPYVNM | inactive
90 | VYSTSDAEVIVSVSRRGDFA | inactive
91 | KVLVFGFQCFIL | 1.56 ± 0.08
92 | MYSPVFRI | inactive
93 | FTRAAREGFFDLY | -0.04 ± 0.66
94 | EKDISAAMRMHGR | -0.315 ± 0.9
95 | SGCGLMQNGMSCLIEFTVAK | inactive
96 | WSYHATTPHLRRYRLERSSN | inactive

Row | Substance | amyloid nucleation score
97 | FDLWNIILVYIPVNACC | 0.735 ± 0.11
98 | FVYLSSKYIMSQMFKGKQMY | inactive
99 | LIFCNATGFTYRWPLTWVVM | inactive
100 | YVSKVYLDH | inactive
101 | NYGNPRRMVCSEYGWESLCK | inactive
102 | SAIKYPLSRRCMWAGSSLLG | inactive
103 | LIRMQVGLLGV | inactive
104 | NFTMNLIIGCF | 1.3 ± 0.12
105 | GSIDFSSSCECIGDWHHRGY | inactive
106 | ICGMWGFDAMRITSWNVPNG | 0.075 ± 0.29
107 | YMGPKDSELDSNRAGCDMSC | inactive
108 | NFINYLR | inactive
109 | PKLSRSYVLSMMVTWRNSKV | inactive
110 | VLCAYK | inactive
111 | CASSWLF | inactive
112 | MTPGFCLPK | inactive
113 | ITFNRSSSKNCSQKVKGRTL | inactive
114 | KTWYWVFMLAVFRFIYLNMR | inactive
115 | VNLYGSRL | inactive
116 | SMHARGDL | inactive
117 | FGYNYLCTFSFIISMVHVRF | inactive
118 | RYKTMRRVTFKHSLNKKWVK | inactive
119 | ISSVQISRAFPQHRTRRN | inactive
